Consider 3 molecules from paper PMC2739207 (BMC Structural Biology, 2009).

The term stoichiometry N denotes a count of units in the complex or per binding partner.

Data set [1] addresses T1, 40 kDa C-terminal fragment of the lysosomal 66.3 kDa protein from mouse (C249-D594) (mouse, UniProt Q3TCN2 249-594, N-glycans at N441 and N520; C249 partially oxidized, modeled as cysteine sulfonic acid (OCS)).
T1 construct: lysosomal 66.3 kDa protein, mouse; C-terminal proteolytic fragment beginning at C249; ordered in 3FGR and 3FGT: C249-P592; W593, D594 and the eleven tag residues are disordered; Made by cleavage of the 66.3 kDa proprotein between S248 and C249; also called 40 kDa fragment; chain B; source: gel filtration only for the batch of 3FGR
T1 sequence (looked up): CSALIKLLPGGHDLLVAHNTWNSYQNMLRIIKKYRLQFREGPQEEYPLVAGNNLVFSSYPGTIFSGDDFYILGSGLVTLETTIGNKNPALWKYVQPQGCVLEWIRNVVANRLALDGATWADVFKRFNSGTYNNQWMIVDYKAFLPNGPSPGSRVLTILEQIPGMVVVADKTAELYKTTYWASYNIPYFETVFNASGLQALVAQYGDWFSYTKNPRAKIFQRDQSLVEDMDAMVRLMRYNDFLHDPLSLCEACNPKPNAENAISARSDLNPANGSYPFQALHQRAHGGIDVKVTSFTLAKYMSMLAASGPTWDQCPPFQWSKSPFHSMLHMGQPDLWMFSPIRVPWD
The data set can be described thus: crystal structure; crystals grown under acidic conditions (PEG 4000, NaAc/HAc pH 4.6, NH4Ac); crystal form I, space group C2, one molecule in the asymmetric unit; 3FGR at 1.8 Å, 3FGT at 2.4 Å. As to conditions: both partners purified.

Data set [2] concerns the molecule itself. Kind of data set: SEC; gel filtration column during protein purification, after affinity and anion exchange columns; single 280 nm absorption peak; conditions as in ref. 17. A general note: Size exclusion chromatography separates by hydrodynamic size, large species first.

B1: 28 kDa N-terminal fragment of the lysosomal 66.3 kDa protein from mouse, shorter form (L47-S246) (domain or fragment, UniProt Q3TCN2 47-246, looked up)
chain: LPTLGPGWQRQNPDPPVSRTRSLLLDAASGQLRLEDGFHPDAVAWANLTNAIRETGWAYLDLSTNGRYNDSLQAYAAGVVEASVSEELIYMHWMNTVVNYCGPFEYEVGYCEKLKNFLEANLEWMQREMELNPDSPYWHQVRLTLLQLKGLEDSYEGRLTFPTGRFTIKPLGFLLLQISGDLEDLEPALNKTNTKPSLGS
modifications: N-glycans at N115 and N236 seen in 3FGT
notes: lysosomal 66.3 kDa protein, mouse; 28 kDa fragment truncated at the C-terminus by two residues; residues L47-S246 by mass spectrometry; ordered in 3FGT: D60-N239; residues after N239 are disordered in the structure; also called shorter version of the 28 kDa fragment; chain A of 3FGT; source: HT1080 human fibrosarcoma cells, overexpressed, purified (original protocol lacking a gel filtration)
Turning to B1, the binding result in data set [1] is “binds”.

B2: 28 kDa N-terminal fragment of the lysosomal 66.3 kDa protein from mouse (L47-S248) (domain or fragment, UniProt Q3TCN2 47-248, looked up)
chain: LPTLGPGWQRQNPDPPVSRTRSLLLDAASGQLRLEDGFHPDAVAWANLTNAIRETGWAYLDLSTNGRYNDSLQAYAAGVVEASVSEELIYMHWMNTVVNYCGPFEYEVGYCEKLKNFLEANLEWMQREMELNPDSPYWHQVRLTLLQLKGLEDSYEGRLTFPTGRFTIKPLGFLLLQISGDLEDLEPALNKTNTKPSLGSGS
modifications: N-glycans at N93, N115 and N236
notes: lysosomal 66.3 kDa protein, mouse; N-terminal proteolytic fragment after cleavage between S248 and C249; residues L47-S248 by mass spectrometry; ordered in 3FGR: V63-T238 and G245-S248; Made by cleavage of the 66.3 kDa proprotein; it never stood apart from the 40 kDa fragment; The protein batch also holds the shorter form L47-S246 and the uncleaved protein; also called 28 kDa fragment; …
As to B2, the binding result in data set [1] was “binds”.

B3: lysosomal 66.3 kDa protein from mouse (natural protein, UniProt Q3TCN2 47-594, looked up)
chain: LPTLGPGWQRQNPDPPVSRTRSLLLDAASGQLRLEDGFHPDAVAWANLTNAIRETGWAYLDLSTNGRYNDSLQAYAAGVVEASVSEELIYMHWMNTVVNYCGPFEYEVGYCEKLKNFLEANLEWMQREMELNPDSPYWHQVRLTLLQLKGLEDSYEGRLTFPTGRFTIKPLGFLLLQISGDLEDLEPALNKTNTKPSLGSGSCSALIKLLPGGHDLLVAHNTWNSYQNMLRIIKKYRLQFREGPQEEYPLVAGNNLVFSSYPGTIFSGDDFYILGSGLVTLETTIGNKNPALWKYVQPQGCVLEWIRNVVANRLALDGATWADVFKRFNSGTYNNQWMIVDYKAFLPNGPSPGSRVLTILEQIPGMVVVADKTAELYKTTYWASYNIPYFETVFNASGLQALVAQYGDWFSYTKNPRAKIFQRDQSLVEDMDAMVRLMRYNDFLHDPLSLCEACNPKPNAENAISARSDLNPANGSYPFQALHQRAHGGIDVKVTSFTLAKYMSMLAASGPTWDQCPPFQWSKSPFHSMLHMGQPDLWMFSPIRVPWD
modifications: N-glycans at N93, N115, N236, N441 and N520; mannose 6-phosphate containing
notes: lysosomal 66.3 kDa protein, mouse; proprotein after removal of the signal peptide, L47-D594; ordered in 3FGW: P61-N239 and G245-D594; The preparation on the gel filtration column was a mixture of the uncleaved chain and the cleaved form (28 kDa plus 40 kDa fragments); the dimer is told of the 66.3 kDa protein as a whole; also called uncleaved 66.3 kDa protein; uncleaved form (3FGW)
As to B3, the “stoichiometry N” value in data set [2] is 2.
